Experimental data reported in the supplement of paper PMC10126150.
± gives the standard deviation of the averaged measurements.

test system: ATP; test: switch fluorescence ratio, 500 uM ATP over buffer (Cy3 cluster intensity, sum of 5 cycles each) (fold (ratio)); higher = stronger signal-on switching upon ATP binding; sequences stand for … in TCGTCGGCAGCGTCAGATGTGTATAAGAGACAGTTTTTTTTTTTTTTTTTTTTTTTTT…TC; details: aptamer strand: ATP DNA aptamer (quencher-CACCTGGGGGAGTATTGCGGAGGAAGG + anchor), 100 nM annealed; ATP concentration: 500 uM
Summary of the method: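 Between each of five buffer/ATP cycles, the flow-cell was stripped with NaOH and re-annealed. Each cycle imaged Cy3-labelled switching-strand clusters, annealed to 100 nM quencher-labelled ATP aptamer on a modified Illumina MiSeq flow-cell, first in selection buffer and then after 15 min with 500 uM ATP at 22 °C. The fluorescence ratio is summed target-cycle over summed buffer-cycle Cy3 intensity per cluster, averaged per switch-domain sequence, with clusters outside 100-1000 RFU excluded.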
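Note: ATP exposure 15 min at 22 °C before imaging.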

Sequence | switch fluorescence ratio
CATTTTGTGG | 0.987 ± 0.012
TTTTGAATAA | 0.9685 ± 0.0049
TTTGTGGGCG | 0.932 ± 0.021
CATGTCTCTC | 1.02 ± 0.032
CTTATCTCTT | 1.02 ± 0.025
TTCAAGGCGG | 1.01 ± 0.014
AGGCATATAG | 1.09 ± 0.077
GATGGCGTGG | 0.964 ± 0.038
AGGTGCCAG | 0.96208 ± 0.00094
ATGTATGGGT | 0.992 ± 0.036
TAGGTAGAGT | 0.9899 ± 0.006
ATGGCAGGCG | 0.995 ± 0.04
CCATTAAGTC | 1.02 ± 0.045
TCATCCGGAT | 1.25 ± 0.049
TTTGCACAGC | 0.997 ± 0.051
TTTAATATAG | 1 ± 0.044
TTGCCATGTT | 0.978 ± 0.036
TCCGATTGAA | 1.08 ± 0.011
TTGTTTTATA | 0.9733 ± 0.0064
CTCGCTCGTT | 1.03 ± 0.018
ATGGCATGCT | 1.02 ± 0.021
GCCGTGTGAT | 0.986 ± 0.0083

Sequence | switch fluorescence ratio
ATCTGCTCTT | 1.01 ± 0.04
AAAGCGTGCG | 0.964 ± 0.022
ACGTAACCTA | 1.28 ± 0.014
TTTATTTTCT | 0.991 ± 0.015
TCTTAGAGGT | 0.983 ± 0.026
CGTAGTGCCC | 1.07 ± 0.048
AGGGGCGAGC | 0.9616 ± 0.005
ATCCGCGGTG | 1.18 ± 0.075
ATCTTAGTTA | 0.999 ± 0.026
TTAAAGCTGT | 1.02 ± 0.063
GACCATACGT | 1.49 ± 0.026
CGTGGATAGT | 0.955 ± 0.03
TCAGTGAGTA | 0.98 ± 0.019
GTGTCAGGGG | 1.04 ± 0.07
TCCGAATGCG | 1.11 ± 0.0041
GTGCTTCTTA | 0.992 ± 0.025
CTGAGATCAG | 1.01 ± 0.026
AATAAGTGGT | 0.989 ± 0.023
TGAGCGGGAA | 1.01 ± 0.02
GGAGGAAATT | 1.01 ± 0.082
GGGGGCATTT | 1 ± 0.031
GATAGAAATT | 1.01 ± 0.031

Sequence | switch fluorescence ratio
CTAGGTGGGG | 1.02 ± 0.025
GGGGATTTGG | 0.992 ± 0.018
TTCGAAGGCT | 0.995 ± 0.017
CCCTGAGGGA | 1.18 ± 0.086
TGATGGGCGC | 1.026 ± 0.0036
CTCAGACGGA | 1 ± 0.043
TTTTTACTTT | 1.05 ± 0.17
TGTGGGGAAG | 0.989 ± 0.016
CGGGGGAAGC | 1.02 ± 0.041
CCGATGGGGA | 1.156 ± 0.0049
CGGTTCGAGT | 1.01 ± 0.035
TGCGCTTGTG | 0.97 ± 0.025
AGGTACGCTC | 0.99314 ± 0.00048
AAGCAGACGG | 1.05 ± 0.036
CAGAGGTGGC | 1.07 ± 0.032
CGTAATTGTA | 1.01 ± 0.018
TTAACTCGAC | 1.07 ± 0.038
GTTGGAGATT | 0.961 ± 0.042
GTTGTCAGGT | 1.001 ± 0.0018
TGGGCTGGGG | 1.04 ± 0.023
AGATAACAGG | 1.01 ± 0.034
ATGCAGAAAT | 1.41 ± 0.83

Sequence | switch fluorescence ratio
TTTTATGCTT | 0.97025 ± 0.00037
TAATAAAGGT | 0.995 ± 0.025
GGAGTATTGG | 1.02 ± 0.022
TAGCGTGAGC | 1.02 ± 0.04
TAAAGTATTT | 1.04 ± 0.073
TCTGGTTGGT | 1.01 ± 0.051
GCTGGAATTG | 1 ± 0.0077
ACGGTGAATG | 1 ± 0.038
TCCGGCTTTG | 0.953 ± 0.075
CAATGTGAGG | 1.01 ± 0.0063
TGCGACTGGT | 0.942 ± 0.024
ATGCCCGTG | 0.985 ± 0.014
AGTCTGGGTA | 0.965 ± 0.016
TTATATAGGT | 0.9738 ± 0.0054
CAACCGTGAA | 1.91 ± 0.92
TTGGTTGTTA | 1.01 ± 0.041
AGATAGTCTC | 0.991 ± 0.024
TGCGGGTTAA | 1.02 ± 0.024
GAGGTAGGCC | 1.048 ± 0.0066
